Measurements from US12016935B2, “Methods for detecting CCR2 receptors” (Washington University, priority 2016, dated 2024).
Where no end group is shown, it is not given here. [ ]: non-standard residue; d: D form.

Assays:
[1] = Toxicity study in mice (serum chemistries, histology); format: in vivo, mouse; details: i.v. 110 μg, 500-fold the estimated human imaging dose; evaluated 24 h later
Experimental: Toxicity studies were performed by S. Greco, DVM (Dept. of Comparative Med., Washington Univ.).

[2] = mouse, in vivo
Experimental: C57BL/6 mice were used for the biodistribution studies. About 10 μCi of ^64Cu-DOTA-ECL1i in 100 μL saline (APP pharmaceuticals, Schaumburg, IL) were injected via the tail vein. The mice were anesthetized with inhaled isoflurane and re-anesthetized before euthanasia by cervical dislocation at each time point (1 hour after injection, n=4/group). Organs of interest were collected, weighed and counted in a Beckman 8000 gamma counter (Beckman, Fullterton, CA).

CCR2 [3] = molecular target: T1, CCR2 (Mus musculus, UniProt P51683)
Experimental: Instead of a dynamic scan, a static scan was performed at 1, 4 and 24 hours after injection. The PET images were reconstructed with the maximum a posteriori algorithm and analyzed by Inveon Research Workplace. The organ uptake was calculated as percent injected dose per gram (% ID/g) of tissue in three-dimensional regions of interest without the correction for partial volume effect (14).

[4] = mouse, in vivo; remark: listed apart in the source
Experimental: After euthanasia, 1 h post-radiotracer injection, organs of interest were collected, weighed and assayed by gamma counter (Beckman, Brea, CA) as described (23). Standards were prepared and measured in parallel to calculate the percentage of the injected dose per gram of tissue (% ID/g).

CCR2 [5] = molecular target: T2, CCR2 (Homo sapiens, UniProt P41597); assay: Autoradiography on human lung tissue sections; format: binding; set-up: Fixed human lung tissue sections; from tissue; host or cells: human lung (COPD explants and donor lungs), fixed paraffin sections; details: lung tissue from subjects with COPD
Experimental: Fixed human lung tissue sections that were deparaffinized and hydrated in PBS were incubated with ^64Cu-DOTA-ECL1i for 5 min (n=4 donor, n=6 COPD). […] Slides were washed 30 times with water then placed in an instant imager (Packard, Meriden, CT) for 30 minutes.
Target sequence in this assay (P41597 whole entry): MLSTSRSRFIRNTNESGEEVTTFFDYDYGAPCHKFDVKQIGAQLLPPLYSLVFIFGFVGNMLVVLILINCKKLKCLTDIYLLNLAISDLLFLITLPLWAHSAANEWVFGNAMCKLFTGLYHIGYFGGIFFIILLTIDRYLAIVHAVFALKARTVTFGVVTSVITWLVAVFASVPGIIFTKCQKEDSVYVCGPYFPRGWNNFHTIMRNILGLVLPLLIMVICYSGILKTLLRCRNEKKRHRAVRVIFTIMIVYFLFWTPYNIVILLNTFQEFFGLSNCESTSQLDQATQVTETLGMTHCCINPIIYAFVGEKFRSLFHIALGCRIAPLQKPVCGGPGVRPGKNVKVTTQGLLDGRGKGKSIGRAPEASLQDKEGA

human CCR2 (hCCR2) = molecular target: T3, human CCR2 (hCCR2) (Homo sapiens, UniProt P41597); assay: CCL2-induced chemotaxis in CHO cells that stably express human CCR2; format: cell-based
T3 construct: expressed in transfected cells; host or cells: CHO
Source text: (§1) CCR2^+ cells migrate in response to CCL2.

[6] = system: CCR2^+ inflammatory monocytes; assay: CCL2-mediated chemotaxis of monocytes; format: cell-based
Source text: as §1

human CCR1 = molecular target: T4, human CCR1 (Homo sapiens, UniProt P32246); assay: Migration of cells expressing human CCR1; format: cell-based
T4 construct: expressed in transfected cells
T4 sequence (P32246 1-355): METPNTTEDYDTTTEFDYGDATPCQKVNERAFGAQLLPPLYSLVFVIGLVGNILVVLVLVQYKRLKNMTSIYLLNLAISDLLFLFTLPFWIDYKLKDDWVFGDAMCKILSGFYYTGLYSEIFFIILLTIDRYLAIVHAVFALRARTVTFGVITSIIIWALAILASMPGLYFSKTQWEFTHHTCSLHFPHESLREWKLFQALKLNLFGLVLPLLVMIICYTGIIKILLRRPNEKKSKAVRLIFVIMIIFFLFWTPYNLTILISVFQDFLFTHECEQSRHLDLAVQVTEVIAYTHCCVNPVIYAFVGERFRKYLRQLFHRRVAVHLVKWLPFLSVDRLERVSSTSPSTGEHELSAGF

human CCR5 = molecular target: T5, human CCR5 (Homo sapiens, UniProt P51681); assay: Migration of cells expressing human CCR5; format: cell-based
T5 construct: expressed in transfected cells

human CX3CR1 = molecular target: T6, human CX3CR1 (Homo sapiens, UniProt P49238); assay: Migration of cells expressing human CX3CR1; format: cell-based
T6 construct: expressed in transfected cells
T6 sequence (P49238 1-355): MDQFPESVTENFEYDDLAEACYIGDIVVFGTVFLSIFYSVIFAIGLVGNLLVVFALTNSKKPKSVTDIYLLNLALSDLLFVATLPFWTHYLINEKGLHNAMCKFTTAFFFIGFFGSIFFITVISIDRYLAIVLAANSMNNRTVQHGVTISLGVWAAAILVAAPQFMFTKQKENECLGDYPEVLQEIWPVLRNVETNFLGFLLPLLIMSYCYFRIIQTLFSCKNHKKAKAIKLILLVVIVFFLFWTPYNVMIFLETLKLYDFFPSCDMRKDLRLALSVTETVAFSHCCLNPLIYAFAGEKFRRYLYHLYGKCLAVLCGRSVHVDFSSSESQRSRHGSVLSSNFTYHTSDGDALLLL

[7] = system: CD45^+ immune cells in COPD lung; assay: Flow cytometry of cells digested from human COPD lung; format: cell-based
Experimental: There were three CCR2 phenotypes (high, intermediate, normal), with implications for future therapies. […] Our tissue bank also includes cells digested from lung for flow cytometry studies. […] We obtain approximately 6-8 explanted lungs per year from COPD subjects. We propose to also examine lung tissue incubated with ECL1i-647 and cells specific antibodies using two-photon microscopy to localize ECL1i.

CCR2 [8] = molecular target: T2, CCR2; assay: Binding of fluorescently-labeled CCL1 to CCR2-expressing HEK293 cells; set-up: expressed in transfected cells; host or cells: HEK293
Source text: as §1
Target sequence in this assay (P41597 whole entry, species assumed): as the sequence (P41597 whole entry) above

CCR2 [9] = molecular target: T2, CCR2; set-up: expressed in transfected cells; host or cells: HEK293; details: compared to CCL2 ligand in vitro; cited from earlier work
Target sequence in this assay (P41597 whole entry, species assumed): as the sequence (P41597 whole entry) above

CCR2 [10] = molecular target: T1, CCR2; assay: PET/CT imaging in LPS mouse lung injury model; format: in vivo; set-up: tissue The Jackson Laboratories; host or cells: C57BL/6 mice, lung and aortic arch in vivo (CCR2+ monocytes/macrophages); details: PET
Source text: The Institutional Animal Care and Use Committee approved these studies. Wild type (n=77) and CCR2-deficient (CCR2^−/−, n=4) mice (C57BL6/J strain) were 8 to 12 weeks of age, of both sexes and approximately 25 g in weight. Mice were used for radiotracer stability studies (n=3) and lung injury studies that included: immunostaining for CCR2 (n=6), in vivo immune cell peptide binding (n=18), lung water weight measurements (n=6), in vivo biodistribution (n=12) and PET/CT imaging (n=36). For the lung injury studies, mice were not treated (naive, n=8), administered intratracheal vehicle control, phosphate buffered saline (PBS, 1 μL/g, n=26) or lipopolysaccharide (LPS, endotoxin, E. coli strain 055:B5, Sigma-Aldrich, St. Louis, MO), at a dose of 2.5 μg/g (n=44), “high” dose, 10 μg/g (n=3), or “low” dose, 0.5 μg/g (n=3) LPS. All CCR2-deficient mice were administered an LPS dose of 2.5 μg/g. Lung water was quantified using wet-to-dry weight ratios in PBS- or intermediate dose LPS-treated mice (n=3/group). Lungs were resected and weighted immediately, then compared to weights obtained after drying at 65° C. for 48 h.
Time-activity curves were calculated from the ROIs from PET images obtained in a subgroup (n=3/group) of the PBS- and LPS-treated mice undergoing imaging at 24 h. […]

[11] = system: monocytes (Ly6G^lo, Ly6C^hi); assay: Flow cytometry of lung immune cells binding ECL1i-Dylight 550 in vivo; set-up: species or system mouse; details: injected i.v. 24 h post LPS; lungs analyzed one hour later
Experimental: Mice (n=4 PBS, n=5 LPS) delivered intratracheal PBS or LPS, and 24 hours later were injected intravenously with ECL1i labeled with Dylight 550 (100 μg) to determine the type of inflammatory cell binding ECL1i. Other mice were treated in parallel but not given ECL1i-Dylight 550 (n=4 PBS, n=5 LPS). One h post-injection, a single cell suspension was produced from the lungs, immunostained with immune cell markers (TABLE 2) and analyzed by flow cytometry.
Mice delivered intratracheal PBS or LPS were injected intravenously with ECL1i labeled with Dylight 550, as with the radiolabeled probe, to determine the type of inflammatory cell binding ECL1i. […] Cells were suspended in FACS buffer, counted by hemocytometer, and prepared for flow cytometry. […] Counts from 1 to 10×10^4 cells were collected for each sample on a FACSCalibur (Becton Dickinson), dual laser, flow cytometer using CellQuest Pro software (BD Biosciences), and analyzed using FlowJo software (Ashland, OR). The mean fluorescent intensity was determined by calculating the geometric mean of Dylight 550 fluorescence of the cell types identified in ECL1i-Dylight 550-injected mice and subtracting the fluorescent background of the same cell types from similarly treated mice not injected with ECL1i-Dylight 550.

T1 sequence (P51683 whole entry): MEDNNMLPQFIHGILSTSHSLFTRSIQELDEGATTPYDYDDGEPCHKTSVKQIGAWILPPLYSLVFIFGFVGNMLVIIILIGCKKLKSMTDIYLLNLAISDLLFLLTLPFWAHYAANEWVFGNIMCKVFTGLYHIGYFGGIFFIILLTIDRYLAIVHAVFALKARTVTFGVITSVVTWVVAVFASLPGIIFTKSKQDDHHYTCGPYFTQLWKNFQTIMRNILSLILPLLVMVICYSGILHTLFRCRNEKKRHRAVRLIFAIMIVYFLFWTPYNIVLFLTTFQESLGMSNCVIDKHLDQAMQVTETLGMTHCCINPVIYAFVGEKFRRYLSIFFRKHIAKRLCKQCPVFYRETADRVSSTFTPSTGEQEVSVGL
T3 sequence (P41597 whole entry): as the sequence (P41597 whole entry) above
T5 sequence (P51681 whole entry): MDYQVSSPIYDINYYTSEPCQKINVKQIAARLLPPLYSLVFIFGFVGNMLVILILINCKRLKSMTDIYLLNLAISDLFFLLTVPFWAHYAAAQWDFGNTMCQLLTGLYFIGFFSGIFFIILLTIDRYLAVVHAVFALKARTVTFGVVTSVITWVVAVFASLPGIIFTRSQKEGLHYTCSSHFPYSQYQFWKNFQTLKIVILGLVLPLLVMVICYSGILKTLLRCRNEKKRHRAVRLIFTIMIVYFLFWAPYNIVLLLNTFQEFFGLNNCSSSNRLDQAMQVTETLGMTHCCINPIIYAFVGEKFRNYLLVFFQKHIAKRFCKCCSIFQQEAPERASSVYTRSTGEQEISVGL

CC(C)C[C@@H](N)C(=O)NCC(=O)N[C@@H](C(=O)N[C@H](Cc1ccccc1)C(=O)N[C@H](CC(C)C)C(=O)N[C@H](CCCCN)C(=O)N[C@H](CSC1CC(=O)N(CCNC(=O)CN2CCN(CC(=O)O)CCN(CC(=O)O)CCN(CC(=O)O)CC2)C1=O)C(=O)O)[C@H](C)O (single isomer, unassigned) [Cu-DOTA-ECL1i]
toxicity findings [1]: normal serum hepatic and renal chemistries, and histologic examination of lung, liver and kidneys

CC(C)C[C@@H](N)C(=O)NCC(=O)N[C@@H](C(=O)N[C@H](Cc1ccccc1)C(=O)N[C@H](CC(C)C)C(=O)N[C@H](CCCCN)C(=O)N[C@H](CSC1CC(=O)N(CCNC(=O)CN2CCN(CC(=O)O)CCN(CC(=O)O)CCN(CC(=O)O)CC2)C1=O)C(=O)O)[C@H](C)O (single isomer, unassigned) [^64Cu-DOTA-ECL1i, metal not drawn]
uptake in the donor lung relative to native lung (biodistribution) [2]: more than twice
PET signal in the grafts blocked by competitive receptor blocking (CCR2 [3]; transplantation into wild type recipients, excess ECL1i): approximately 75%
blood retention, LPS versus PBS treated mice [4]: no difference in blood retention
specificity determined by non-radioactive blockade (CCR2 [5]): 54.5%

DLeu-Gly-DThr-DPhe-DLeu-DLys-DCys ([dL]G[dT][dF][dL][dK][dC]) [ECL1i]
induction of migration of CHO-hCCR2 cells (human CCR2 (hCCR2); at concentrations that inhibited CCL2 signaling): did not induce the migration
inhibition of CCL2-induced chemotaxis (human CCR2 (hCCR2); concentration-dependent manner): specifically inhibited CCL2-induced chemotaxis
inhibition of CCL2-mediated chemotaxis of monocytes [6]: inhibited CCL2-mediated chemotaxis of CCR2^+ inflammatory monocytes, but not of resident monocytes
inhibition of migration (human CCR1): did not inhibit the migration
inhibition of migration (human CCR5): did not inhibit the migration
inhibition of migration (human CX3CR1): did not inhibit the migration
binding to human lung cells [7]: bound a population of CD45^+ immune cells
effect on binding of fluorescently-labeled CCL1 (CCR2 [8]): did not prevent the binding
CCR2 binding mode (CCR2 [9]): selectively bind CCR2 in a non-competitive way
activity in lungs after intratracheal lipopolysaccharide relative to saline control group (CCR2 [10]): 3.5 fold

ECL1i-Dylight 550: Maleimide-modified Dylight 550 conjugated to ECL1i on the cysteine residue ([dL]G[dT][dF][dL][dK][dC](Dylight 550 maleimide))
binding to monocytes (Ly6G^lo, Ly6C^hi) induced by LPS [11]: significant binding

^64CuAuNCs-ECL1i: ECL1i-conjugated gold nanoclusters doped with ^64Cu; multivalent targeted nanocluster ([dL]G[dT][dF][dL][dK][dC]; also: joined via TA-PEG-Maleimide to a gold nanocluster doped with 64Cu, attachment site not given here)
retention in the blood relative to monovalent ^64Cu-DOTA-ECL1i [2]: six-fold higher
share of accumulation in pulmonary grafts due to CCR2-mediated uptake (CCR2 [3]; accumulation of ^64CuAuNCs in native lungs set as background): more than 80%
